Kd data for one molecule are collected here from PMC4943463.

In this data set the target is A3B-CTD (APOBEC3B C-terminal domain, wild type) (Homo sapiens, UniProt Q9UH17 187-382). The experiment in a line: NMR titration.
Sequence of A3B-CTD (APOBEC3B C-terminal domain, wild type) (Q9UH17 187-382): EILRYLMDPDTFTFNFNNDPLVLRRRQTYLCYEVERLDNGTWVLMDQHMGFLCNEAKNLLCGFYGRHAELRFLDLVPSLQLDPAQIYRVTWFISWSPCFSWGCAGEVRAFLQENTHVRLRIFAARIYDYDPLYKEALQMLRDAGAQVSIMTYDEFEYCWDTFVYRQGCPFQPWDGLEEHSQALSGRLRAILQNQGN

B1: 9-nt U-containing oligonucleotide ATTTUATTT (ssDNA)
DNA: ATTTUATTT
modifications: deoxyuridine at position 5 (DNA oligonucleotide, U in place of target C)
In the case of B1, binding was put at a Kd of 119 ± 26 µM.
